Experimental findings from PMC11592666 are described below.

One assay has as its target His-Dwg wild type. In words: GST pull-down. Conditions: parent: est. 41; read off a plot.
The next assay addresses GST-Atg8a wild type (UniProt Q9W2S2). The assay can be described thus: GST pull-down. Conditions: parent: est. 27; read off a plot.
UniProt Q9W2S2, sequence (Q9W2S2 entry or part of it): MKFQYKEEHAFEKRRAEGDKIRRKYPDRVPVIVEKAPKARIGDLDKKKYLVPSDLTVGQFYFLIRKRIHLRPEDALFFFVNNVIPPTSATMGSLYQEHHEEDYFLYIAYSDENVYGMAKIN

Turning to “GST-Atg8a wild type (from UniProt Q9W2S2) Y49A”, the other: Fold Change with His-Dwg wild type was found to be 4.4.

Consider His-Dwg wild type Y129A; I132A, for which, in the assay with GST-Atg8a wild type, the other: Fold Change turned out to be 9.5.
